Laboratory results taken from article PMC6525019 (Cell chemical biology, 2019).

Legend:
[1] = molecular target: A. baumannii RibBX (3,4-dihydroxy-2-butanone 4-phosphate synthase (DHBPS; RibB) fusion protein) (Acinetobacter baumannii ATCC 17978); experiment: crystal structure
[2] = molecular target: A. baumannii RibBX (3,4-dihydroxy-2-butanone 4-phosphate synthase (DHBPS; RibB) fusion protein) (Acinetobacter baumannii ATCC 17978); experiment: SEC
RibBX [3] = molecular target: T1, RibBX (Acinetobacter baumannii, UniProt V5V8R9); experiment: colorimetric DHBPS assay; format: biochemical
T1 sequence (V5V8R9 1-373): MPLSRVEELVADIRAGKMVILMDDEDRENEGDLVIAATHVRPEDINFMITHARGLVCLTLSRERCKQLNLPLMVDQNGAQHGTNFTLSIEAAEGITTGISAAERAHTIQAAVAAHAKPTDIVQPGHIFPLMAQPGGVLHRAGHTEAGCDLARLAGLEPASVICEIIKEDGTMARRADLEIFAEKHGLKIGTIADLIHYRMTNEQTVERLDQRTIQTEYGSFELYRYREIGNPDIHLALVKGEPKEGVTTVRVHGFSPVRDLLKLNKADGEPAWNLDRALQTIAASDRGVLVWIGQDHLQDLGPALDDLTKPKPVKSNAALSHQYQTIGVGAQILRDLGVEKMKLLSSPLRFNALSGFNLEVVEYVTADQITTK

RibBX [4] = molecular target: T1, RibBX; experiment: isothermal titration calorimetry; format: binding

| Compound | stoichiometry N [1] | stoichiometry N [2] | Ki (RibBX [3]) | Kd (RibBX [4]) |
| --- | --- | --- | --- | --- |
| A. baumannii RibBX (3,4-dihydroxy-2-butanone 4-phosphate synthase (DHBPS; RibB) fusion protein) (enzyme) | 4 | 2 |  |  |
| Cc1cc2nc3c(=O)[nH]c(=O)nc-3n(C[C@H](O)[C@H](O)[C@H](O)COP(=O)(O)O)c2cc1C [FMN] |  |  | 7.8 µM | 0.714 µM |
